Test results taken from paper PMC6299097.

Assays:
Assay in all cases: crystal structure; L1 pentamers (Cys175 to Ser, limited trypsin digestion) at ~5 mg/mL, vapour diffusion at 20 °C
[1] = target: H58-33BC chimeric L1 pentamer (Human papillomavirus type 58)
[2] = target: H58-33BC-52HI chimeric L1 pentamer (Human papillomavirus type 58)
[3] = target: HPV33 L1 pentamer (Human papillomavirus type 33)
[4] = target: HPV52 L1 pentamer (Human papillomavirus type 52)

H58-33BC chimeric L1 pentamer (complex) was tested, and the stoichiometry N [1] was 5.

“H58-33BC-52HI chimeric L1 pentamer (complex)” showed a stoichiometry N [2] of 5.

HPV33 L1 pentamer (complex) showed a stoichiometry N [3] of 5.

In the case of HPV52 L1 pentamer (complex), the stoichiometry N [4] is reported as 5.
